From IntAct's records for PubMed 21217698

B1: DnaJ homolog subfamily B member 11 (Mus musculus), Q99KV1 (parent)
chain: MAPQNLSTFCLLLLYLIGTVIAGRDFYKILGVPRSASIKDIKKAYRKLALQLHPDRNPDDPQAQEKFQDLGAAYEVLSDSEKRKQYDTYGEEGLKDGHQSSHGDIFSHFFGDFGFMFGGTPRQQDRNIPRGSDIIVDLEVTLEEVYAGNFVEVVRNKPVARQAPGKRKCNCRQEMRTTQLGPGRFQMTQEVVCDECPNVKLVNEERTLEVEIEPGVRDGMEYPFIGEGEPHVDGEPGDLRFRIKVVKHRIFERRGDDLYTNVTVSLVEALVGFEMDITHLDGHKVHISRDKITRPGAKLWKKGEGLPNFDNNNIKGSLIITFDVDFPKEQLTEEAKEGIKQLLKQGPVQKVYNGLQGY

Variants of: B1
Conditions: with bip_mouse Hspa5, P20029
bip_mouse Hspa5, P20029, sequence (P20029 whole entry): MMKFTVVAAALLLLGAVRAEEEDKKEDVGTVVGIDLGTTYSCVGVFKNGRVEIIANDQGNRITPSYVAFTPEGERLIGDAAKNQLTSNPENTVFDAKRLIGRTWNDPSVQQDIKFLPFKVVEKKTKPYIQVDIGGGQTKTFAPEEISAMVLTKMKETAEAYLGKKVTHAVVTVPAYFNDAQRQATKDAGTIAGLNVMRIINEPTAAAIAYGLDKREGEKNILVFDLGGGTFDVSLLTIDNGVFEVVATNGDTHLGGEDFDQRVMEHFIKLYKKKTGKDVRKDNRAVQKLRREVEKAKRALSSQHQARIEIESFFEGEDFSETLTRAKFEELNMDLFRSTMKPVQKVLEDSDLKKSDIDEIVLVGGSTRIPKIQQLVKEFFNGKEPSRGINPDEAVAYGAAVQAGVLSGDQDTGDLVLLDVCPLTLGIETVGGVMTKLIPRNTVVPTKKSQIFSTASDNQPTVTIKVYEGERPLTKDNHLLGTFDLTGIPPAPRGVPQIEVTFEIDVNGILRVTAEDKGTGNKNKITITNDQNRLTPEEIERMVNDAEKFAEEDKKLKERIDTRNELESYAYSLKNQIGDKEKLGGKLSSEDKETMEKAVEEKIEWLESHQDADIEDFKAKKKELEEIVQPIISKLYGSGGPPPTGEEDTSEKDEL

| Variant | effect of a mutation on the interaction |
| --- | --- |
| H53Q | disrupting interaction |
